Measured values as given in PMC9949482 (2021).

B1: RXRα LBD (protein)
chain: NEDMPVERILEAELAVEPKTETYVEANMGLNPSSPNDPVTNICQAADKQLFTLVEWAKRIPHFSELPLDDQVILLRAGWNELLIASFSHRSIAVKDGILLATGLHVHRNSAHSAGVGAIFDRVLTELVSKMRDMQMDKTELGCLRAIVLFNPDSKGLSNPAEVEALREKVYASLEAYCKHKYPEQPGRFAKLLLRLPALRSIGLKCLEHLFFFKLIGDTPIDTFLMEMLEAP
modifications: UAB111
B2: RXRα LBD (protein)
chain: B1 chain
modifications: UAB30
B3: RXRα LBD (protein)
chain: B1 chain
modifications: UAB110

target: T1, GRIP-1 (Homo sapiens, UniProt Q15596); assay: thermal shift, van't Hoff to 25 °C
T1 sequence (Q15596 2-1464): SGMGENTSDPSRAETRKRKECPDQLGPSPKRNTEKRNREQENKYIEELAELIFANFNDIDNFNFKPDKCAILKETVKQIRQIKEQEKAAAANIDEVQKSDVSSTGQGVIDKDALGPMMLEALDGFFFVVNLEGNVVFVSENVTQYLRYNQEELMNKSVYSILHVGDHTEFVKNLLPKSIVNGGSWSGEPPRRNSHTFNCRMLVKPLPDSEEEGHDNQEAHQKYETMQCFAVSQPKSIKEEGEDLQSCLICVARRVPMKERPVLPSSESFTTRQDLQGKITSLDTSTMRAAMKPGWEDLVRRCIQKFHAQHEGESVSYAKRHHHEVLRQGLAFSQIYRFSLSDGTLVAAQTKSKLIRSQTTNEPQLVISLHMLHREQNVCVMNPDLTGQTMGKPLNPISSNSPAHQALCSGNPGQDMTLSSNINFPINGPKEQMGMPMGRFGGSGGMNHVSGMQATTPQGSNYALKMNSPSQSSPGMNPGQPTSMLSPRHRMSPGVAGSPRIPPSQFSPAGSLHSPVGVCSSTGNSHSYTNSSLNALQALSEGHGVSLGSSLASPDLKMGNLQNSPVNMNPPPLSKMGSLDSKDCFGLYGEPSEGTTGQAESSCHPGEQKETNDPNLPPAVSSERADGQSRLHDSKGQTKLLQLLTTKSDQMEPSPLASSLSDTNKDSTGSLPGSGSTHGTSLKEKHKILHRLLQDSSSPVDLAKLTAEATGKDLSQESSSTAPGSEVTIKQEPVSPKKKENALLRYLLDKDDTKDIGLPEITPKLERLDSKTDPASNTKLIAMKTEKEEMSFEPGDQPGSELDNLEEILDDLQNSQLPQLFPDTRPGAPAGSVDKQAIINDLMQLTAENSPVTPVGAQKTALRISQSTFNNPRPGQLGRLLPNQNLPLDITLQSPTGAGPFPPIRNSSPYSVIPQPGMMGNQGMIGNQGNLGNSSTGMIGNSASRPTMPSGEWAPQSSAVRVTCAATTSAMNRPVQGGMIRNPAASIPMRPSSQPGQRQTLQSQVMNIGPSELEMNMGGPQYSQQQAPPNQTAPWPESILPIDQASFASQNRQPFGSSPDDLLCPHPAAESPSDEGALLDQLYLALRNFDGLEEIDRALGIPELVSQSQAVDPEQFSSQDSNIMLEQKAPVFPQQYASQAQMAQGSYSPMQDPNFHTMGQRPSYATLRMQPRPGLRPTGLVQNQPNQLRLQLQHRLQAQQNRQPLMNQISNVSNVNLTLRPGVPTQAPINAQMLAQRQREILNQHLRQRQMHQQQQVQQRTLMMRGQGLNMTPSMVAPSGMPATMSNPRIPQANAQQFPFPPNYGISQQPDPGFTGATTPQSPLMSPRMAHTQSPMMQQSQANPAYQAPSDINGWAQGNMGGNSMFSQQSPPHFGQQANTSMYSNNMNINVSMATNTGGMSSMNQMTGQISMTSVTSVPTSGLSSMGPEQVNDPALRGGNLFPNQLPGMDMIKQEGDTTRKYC

Kd [µM] | Binder
1.8 | B1
0.74 | B2
1.5 | B3

target: T1, GRIP-1; assay: thermal shift

Kd [µM] | Binder
24 | B1
22 | B2
26 | B3
